Test results from patent publication US20250218531A1 (ABSCI, published 2025).
Numbering of substitutions follows the chain as printed. Several values for one entry are separate records, joined by “and”; a condition that tells them apart may be missing. Identical values can stand only once.

B1: Trastuzumab HCDR3 variant ARYYGYYYAFDY (Fab, V domains shown)
VH: EVQLVESGGGLVQPGGSLRLSCAASGFNIKDTYIHWVRQAPGKGLEWVARIYPTNGYTRYADSVKGRFTISADTSKNTAYLQMNSLRAEDTAVYYCARYYGYYYAFDYWGQGTLVTVSS
VL: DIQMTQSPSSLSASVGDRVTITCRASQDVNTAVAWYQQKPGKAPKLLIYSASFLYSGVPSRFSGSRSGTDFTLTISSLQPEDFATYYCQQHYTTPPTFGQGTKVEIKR
B2: Trastuzumab HCDR3 variant ARYYYGYGGYYFDY (Fab, V domains shown)
VH: EVQLVESGGGLVQPGGSLRLSCAASGFNIKDTYIHWVRQAPGKGLEWVARIYPTNGYTRYADSVKGRFTISADTSKNTAYLQMNSLRAEDTAVYYCARYYYGYGGYYFDYWGQGTLVTVSS
VL: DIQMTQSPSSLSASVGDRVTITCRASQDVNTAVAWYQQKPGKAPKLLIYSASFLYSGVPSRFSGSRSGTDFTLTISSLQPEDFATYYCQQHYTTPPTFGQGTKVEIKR
B3: Trastuzumab HCDR3 variant ARYGYAPGFYYMDV (Fab, V domains shown)
VH: B2 VH with Y100G, G102A, Y103P, G105F, F108M, Y110V
VL: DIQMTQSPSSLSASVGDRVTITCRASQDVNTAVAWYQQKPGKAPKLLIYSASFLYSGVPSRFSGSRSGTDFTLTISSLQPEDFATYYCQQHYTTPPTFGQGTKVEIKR
B4: Trastuzumab HCDR3 variant TRYYDGAGPYYMDY (Fab, V domains shown)
VH: B2 VH with A97T, Y101D, Y103A, G105P, F108M
VL: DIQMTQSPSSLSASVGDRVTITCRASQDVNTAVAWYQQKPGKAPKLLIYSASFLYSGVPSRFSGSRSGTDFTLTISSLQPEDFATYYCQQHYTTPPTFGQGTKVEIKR
B5: Trastuzumab HCDR3 variant ARYGGGYNMDY (Fab, V domains shown)
VH: EVQLVESGGGLVQPGGSLRLSCAASGFNIKDTYIHWVRQAPGKGLEWVARIYPTNGYTRYADSVKGRFTISADTSKNTAYLQMNSLRAEDTAVYYCARYGGGYNMDYWGQGTLVTVSS
VL: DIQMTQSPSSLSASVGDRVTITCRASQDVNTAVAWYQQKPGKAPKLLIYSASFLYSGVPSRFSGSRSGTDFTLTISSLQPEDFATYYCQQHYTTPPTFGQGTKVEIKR
B6: Trastuzumab HCDR3 variant ARWEDYYYMDY (Fab, V domains shown)
VH: B5 VH with Y99W, G100E, G101D, G102Y, N104Y
VL: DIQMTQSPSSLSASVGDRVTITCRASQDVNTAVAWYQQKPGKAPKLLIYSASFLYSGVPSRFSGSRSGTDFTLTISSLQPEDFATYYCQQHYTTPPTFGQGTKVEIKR
B7: Trastuzumab HCDR3 variant TRYGLTFDMDY (Fab, V domains shown)
VH: B5 VH with A97T, G101L, G102T, Y103F, N104D
VL: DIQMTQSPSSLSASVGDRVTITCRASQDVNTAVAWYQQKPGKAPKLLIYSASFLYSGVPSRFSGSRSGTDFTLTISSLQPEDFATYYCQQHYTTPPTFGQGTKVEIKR
B8: Trastuzumab HCDR3 variant ARWYVSYDYDV (Fab, V domains shown)
VH: B5 VH with Y99W, G100Y, G101V, G102S, N104D, M105Y, Y107V
VL: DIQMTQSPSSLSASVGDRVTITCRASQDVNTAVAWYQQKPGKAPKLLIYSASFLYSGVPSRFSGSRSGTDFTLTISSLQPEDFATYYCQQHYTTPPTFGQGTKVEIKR
B9: Trastuzumab HCDR3 variant VRFYYDYYFDY (Fab, V domains shown)
VH: B5 VH with A97V, Y99F, G100Y, G101Y, G102D, N104Y, M105F
VL: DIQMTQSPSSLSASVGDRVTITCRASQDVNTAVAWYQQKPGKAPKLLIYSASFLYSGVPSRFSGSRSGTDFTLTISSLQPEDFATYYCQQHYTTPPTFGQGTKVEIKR
B10: Trastuzumab HCDR3 variant TRWGGYYYFDY (Fab, V domains shown)
VH: B5 VH with A97T, Y99W, G102Y, N104Y, M105F
VL: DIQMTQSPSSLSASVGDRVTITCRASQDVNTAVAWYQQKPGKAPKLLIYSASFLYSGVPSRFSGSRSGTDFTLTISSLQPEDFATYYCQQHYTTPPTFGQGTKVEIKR
B11: Trastuzumab HCDR3 variant APYGPGYWYGV (Fab, V domains shown)
VH: B5 VH with R98P, G101P, N104W, M105Y, D106G, Y107V
VL: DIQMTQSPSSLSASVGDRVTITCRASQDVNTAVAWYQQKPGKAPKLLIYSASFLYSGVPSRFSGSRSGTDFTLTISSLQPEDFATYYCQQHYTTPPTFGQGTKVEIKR
B12: Trastuzumab HCDR3 variant VRYGNSYYYDY (Fab, V domains shown)
VH: B5 VH with A97V, G101N, G102S, N104Y, M105Y
VL: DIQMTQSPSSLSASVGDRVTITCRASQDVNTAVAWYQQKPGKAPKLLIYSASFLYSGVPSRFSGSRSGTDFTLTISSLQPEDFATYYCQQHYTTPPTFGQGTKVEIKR
B13: Trastuzumab HCDR3 variant ARYRGVWYYDFDN (Fab, V domains shown)
VH: EVQLVESGGGLVQPGGSLRLSCAASGFNIKDTYIHWVRQAPGKGLEWVARIYPTNGYTRYADSVKGRFTISADTSKNTAYLQMNSLRAEDTAVYYCARYRGVWYYDFDNWGQGTLVTVSS
VL: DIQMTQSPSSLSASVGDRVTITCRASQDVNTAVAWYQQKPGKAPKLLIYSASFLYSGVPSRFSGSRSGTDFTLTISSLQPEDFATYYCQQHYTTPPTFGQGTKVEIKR
B14: Trastuzumab HCDR3 variant VRYYGDGGYYFDY (Fab, V domains shown)
VH: B13 VH with A97V, R100Y, V102D, W103G, Y104G, D106Y, N109Y
VL: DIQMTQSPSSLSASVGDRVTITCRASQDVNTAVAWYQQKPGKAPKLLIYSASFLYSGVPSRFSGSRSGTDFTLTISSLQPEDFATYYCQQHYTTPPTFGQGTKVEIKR
B15: Trastuzumab HCDR3 variant TRYFFNGWYYFDV (Fab, V domains shown)
VH: B13 VH with A97T, R100F, G101F, V102N, W103G, Y104W, D106Y, N109V
VL: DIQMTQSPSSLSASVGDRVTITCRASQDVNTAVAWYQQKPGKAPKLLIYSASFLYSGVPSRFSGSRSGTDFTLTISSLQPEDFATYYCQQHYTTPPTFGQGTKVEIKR
B16: Trastuzumab HCDR3 variant SRYYAGGWYYFDY (Fab, V domains shown)
VH: B13 VH with A97S, R100Y, G101A, V102G, W103G, Y104W, D106Y, N109Y
VL: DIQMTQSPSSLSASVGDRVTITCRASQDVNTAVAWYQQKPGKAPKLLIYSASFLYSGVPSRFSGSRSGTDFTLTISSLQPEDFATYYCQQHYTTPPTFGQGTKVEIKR
B17: Trastuzumab HCDR3 variant ARYSAYGLYDFAY (Fab, V domains shown)
VH: B13 VH with R100S, G101A, V102Y, W103G, Y104L, D108A, N109Y
VL: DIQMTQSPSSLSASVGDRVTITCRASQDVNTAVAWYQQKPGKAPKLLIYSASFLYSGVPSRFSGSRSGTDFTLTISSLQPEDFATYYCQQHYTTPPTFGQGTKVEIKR
B18: Trastuzumab HCDR3 variant TRWLEGLSYFMDY (Fab, V domains shown)
VH: B13 VH with A97T, Y99W, R100L, G101E, V102G, W103L, Y104S, D106F, F107M, N109Y
VL: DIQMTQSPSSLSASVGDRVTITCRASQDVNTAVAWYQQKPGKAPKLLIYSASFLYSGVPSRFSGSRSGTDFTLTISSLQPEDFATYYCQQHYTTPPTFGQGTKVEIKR
B19: Trastuzumab HCDR3 variant TRYGGYGYYYMDY (Fab, V domains shown)
VH: B13 VH with A97T, R100G, V102Y, W103G, D106Y, F107M, N109Y
VL: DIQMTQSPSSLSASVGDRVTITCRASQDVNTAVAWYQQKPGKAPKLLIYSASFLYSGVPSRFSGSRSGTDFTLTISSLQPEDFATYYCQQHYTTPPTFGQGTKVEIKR
B20: Trastuzumab HCDR3 variant ASYGLDGYYYFDV (Fab, V domains shown)
VH: B13 VH with R98S, R100G, G101L, V102D, W103G, D106Y, N109V
VL: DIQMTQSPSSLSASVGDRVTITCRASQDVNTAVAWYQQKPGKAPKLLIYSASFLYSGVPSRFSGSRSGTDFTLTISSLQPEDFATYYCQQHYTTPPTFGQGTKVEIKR
B21: Trastuzumab HCDR3 variant TRYRGPYYYYFDP (Fab, V domains shown)
VH: B13 VH with A97T, V102P, W103Y, D106Y, N109P
VL: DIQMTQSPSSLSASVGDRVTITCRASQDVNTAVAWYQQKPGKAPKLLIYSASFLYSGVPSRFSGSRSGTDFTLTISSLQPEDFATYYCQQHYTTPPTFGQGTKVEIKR
B22: Trastuzumab HCDR3 variant TRYEYQDYYHFDY (Fab, V domains shown)
VH: B13 VH with A97T, R100E, G101Y, V102Q, W103D, D106H, N109Y
VL: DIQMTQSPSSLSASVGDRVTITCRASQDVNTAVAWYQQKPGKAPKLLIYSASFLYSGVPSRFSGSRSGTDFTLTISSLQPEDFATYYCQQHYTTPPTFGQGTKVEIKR
B23: Trastuzumab HCDR3 variant VRYGGWGFWYFDY (Fab, V domains shown)
VH: B13 VH with A97V, R100G, V102W, W103G, Y104F, Y105W, D106Y, N109Y
VL: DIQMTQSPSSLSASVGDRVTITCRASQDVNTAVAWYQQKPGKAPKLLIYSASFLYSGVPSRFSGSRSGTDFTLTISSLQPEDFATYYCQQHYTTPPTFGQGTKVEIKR
B24: Trastuzumab HCDR3 variant AVTDLDGLHSYRY (Fab, V domains shown)
VH: EVQLVESGGGLVQPGGSLRLSCAASGFNIKDTYIHWVRQAPGKGLEWVARIYPTNGYTRYADSVKGRFTISADTSKNTAYLQMNSLRAEDTAVYYCAVTDLDGLHSYRYWGQGTLVTVSS
VL: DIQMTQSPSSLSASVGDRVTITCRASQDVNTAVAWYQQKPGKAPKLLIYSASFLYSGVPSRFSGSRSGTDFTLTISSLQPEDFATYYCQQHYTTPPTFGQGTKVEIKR
B25: Trastuzumab HCDR3 variant ARYSGYGLYPYAY (Fab, V domains shown)
VH: B13 VH with R100S, V102Y, W103G, Y104L, D106P, F107Y, D108A, N109Y
VL: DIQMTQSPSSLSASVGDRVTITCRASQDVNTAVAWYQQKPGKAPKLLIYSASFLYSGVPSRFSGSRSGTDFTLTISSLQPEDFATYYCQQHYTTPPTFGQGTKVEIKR
B26: Trastuzumab HCDR3 variant TRNYYDYYYYFDY (Fab, V domains shown)
VH: B13 VH with A97T, Y99N, R100Y, G101Y, V102D, W103Y, D106Y, N109Y
VL: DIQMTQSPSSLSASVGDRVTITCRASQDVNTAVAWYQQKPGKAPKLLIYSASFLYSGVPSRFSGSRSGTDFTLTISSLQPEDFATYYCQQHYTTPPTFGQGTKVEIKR
B27: Trastuzumab HCDR3 variant ARYWYGGYYYFDY (Fab, V domains shown)
VH: B13 VH with R100W, G101Y, V102G, W103G, D106Y, N109Y
VL: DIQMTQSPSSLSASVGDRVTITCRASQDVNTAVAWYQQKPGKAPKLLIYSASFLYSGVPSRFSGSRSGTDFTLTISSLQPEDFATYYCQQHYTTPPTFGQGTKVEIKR
B28: Trastuzumab HCDR3 variant ARYYGYGGYYMDY (Fab, V domains shown)
VH: B13 VH with R100Y, V102Y, W103G, Y104G, D106Y, F107M, N109Y
VL: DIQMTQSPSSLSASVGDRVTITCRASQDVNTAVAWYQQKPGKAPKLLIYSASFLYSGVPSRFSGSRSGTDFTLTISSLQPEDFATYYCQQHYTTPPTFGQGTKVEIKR
B29: Trastuzumab HCDR3 variant TRYYYYGSYHFDY (Fab, V domains shown)
VH: B13 VH with A97T, R100Y, G101Y, V102Y, W103G, Y104S, D106H, N109Y
VL: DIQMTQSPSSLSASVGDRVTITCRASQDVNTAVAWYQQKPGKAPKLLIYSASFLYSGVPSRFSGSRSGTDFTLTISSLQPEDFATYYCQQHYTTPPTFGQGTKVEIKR
B30: Trastuzumab HCDR3 variant VRYFYDGNYYFDL (Fab, V domains shown)
VH: B13 VH with A97V, R100F, G101Y, V102D, W103G, Y104N, D106Y, N109L
VL: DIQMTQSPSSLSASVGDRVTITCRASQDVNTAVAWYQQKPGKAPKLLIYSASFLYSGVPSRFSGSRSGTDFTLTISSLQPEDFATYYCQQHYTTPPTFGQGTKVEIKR
B31: Trastuzumab HCDR3 variant ARYYYDYYYYFDY (Fab, V domains shown)
VH: B13 VH with R100Y, G101Y, V102D, W103Y, D106Y, N109Y
VL: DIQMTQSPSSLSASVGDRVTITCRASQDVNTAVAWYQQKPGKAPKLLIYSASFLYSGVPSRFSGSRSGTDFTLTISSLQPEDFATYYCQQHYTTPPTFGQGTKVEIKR
B32: Trastuzumab HCDR3 variant ARYYGYGYYYFHY (Fab, V domains shown)
VH: B13 VH with R100Y, V102Y, W103G, D106Y, D108H, N109Y
VL: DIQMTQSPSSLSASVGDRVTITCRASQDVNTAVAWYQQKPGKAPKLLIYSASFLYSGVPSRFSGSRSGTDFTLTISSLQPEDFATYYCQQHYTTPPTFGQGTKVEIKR
B33: Trastuzumab HCDR3 variant ARYWGLGGYYFDH (Fab, V domains shown)
VH: B13 VH with R100W, V102L, W103G, Y104G, D106Y, N109H
VL: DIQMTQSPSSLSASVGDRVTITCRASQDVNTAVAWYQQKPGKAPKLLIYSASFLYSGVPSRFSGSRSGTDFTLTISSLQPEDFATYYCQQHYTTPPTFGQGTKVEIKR
B34: Trastuzumab HCDR3 variant ARYVGLGGYPLGY (Fab, V domains shown)
VH: B13 VH with R100V, V102L, W103G, Y104G, D106P, F107L, D108G, N109Y
VL: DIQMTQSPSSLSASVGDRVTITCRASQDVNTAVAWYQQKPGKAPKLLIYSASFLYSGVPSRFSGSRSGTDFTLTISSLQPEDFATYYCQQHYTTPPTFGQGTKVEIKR
B35: Trastuzumab HCDR3 variant ARYYSYGQYAFDP (Fab, V domains shown)
VH: B13 VH with R100Y, G101S, V102Y, W103G, Y104Q, D106A, N109P
VL: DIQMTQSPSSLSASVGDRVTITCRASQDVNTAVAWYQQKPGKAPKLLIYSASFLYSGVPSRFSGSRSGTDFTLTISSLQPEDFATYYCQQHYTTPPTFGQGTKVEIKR
B36: Trastuzumab HCDR3 variant ARYTYFGSFDFDY (Fab, V domains shown)
VH: B13 VH with R100T, G101Y, V102F, W103G, Y104S, Y105F, N109Y
VL: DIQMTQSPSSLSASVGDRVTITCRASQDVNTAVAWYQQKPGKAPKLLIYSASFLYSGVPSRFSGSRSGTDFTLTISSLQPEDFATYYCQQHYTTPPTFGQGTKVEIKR
B37: Trastuzumab HCDR3 variant VRYGFYGYYYFDY (Fab, V domains shown)
VH: B13 VH with A97V, R100G, G101F, V102Y, W103G, D106Y, N109Y
VL: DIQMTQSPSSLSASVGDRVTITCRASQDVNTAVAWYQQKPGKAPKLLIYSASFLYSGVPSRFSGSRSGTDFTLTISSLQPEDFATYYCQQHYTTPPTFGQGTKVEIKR
B38: Trastuzumab HCDR3 variant VRYGSDVYYYFDI (Fab, V domains shown)
VH: B13 VH with A97V, R100G, G101S, V102D, W103V, D106Y, N109I
VL: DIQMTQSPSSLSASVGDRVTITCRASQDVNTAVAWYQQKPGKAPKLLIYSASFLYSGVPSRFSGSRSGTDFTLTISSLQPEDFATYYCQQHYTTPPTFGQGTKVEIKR
B39: Trastuzumab HCDR3 variant VRWGVGAYYNFDY (Fab, V domains shown)
VH: B13 VH with A97V, Y99W, R100G, G101V, V102G, W103A, D106N, N109Y
VL: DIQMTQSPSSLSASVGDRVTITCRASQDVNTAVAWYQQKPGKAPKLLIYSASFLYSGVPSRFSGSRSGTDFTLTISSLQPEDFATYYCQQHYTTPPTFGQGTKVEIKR
B40: Trastuzumab HCDR3 variant VRYGYGDYYYFDY (Fab, V domains shown)
VH: B13 VH with A97V, R100G, G101Y, V102G, W103D, D106Y, N109Y
VL: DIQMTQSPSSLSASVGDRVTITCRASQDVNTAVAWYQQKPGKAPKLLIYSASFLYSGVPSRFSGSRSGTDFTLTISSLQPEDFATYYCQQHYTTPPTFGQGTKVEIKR
B41: Trastuzumab HCDR3 variant TSIFSGGYYGLDS (Fab, V domains shown)
VH: B13 VH with A97T, R98S, Y99I, R100F, G101S, V102G, W103G, D106G, F107L, N109S
VL: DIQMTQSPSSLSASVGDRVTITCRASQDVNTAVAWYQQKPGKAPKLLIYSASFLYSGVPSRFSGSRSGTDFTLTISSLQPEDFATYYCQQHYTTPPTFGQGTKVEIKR
B42: Trastuzumab HCDR3 variant TRYGYGGPYWFDY (Fab, V domains shown)
VH: B13 VH with A97T, R100G, G101Y, V102G, W103G, Y104P, D106W, N109Y
VL: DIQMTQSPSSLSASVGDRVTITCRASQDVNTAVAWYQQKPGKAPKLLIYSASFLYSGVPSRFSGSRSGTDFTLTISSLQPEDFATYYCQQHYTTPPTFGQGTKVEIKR
B43: Trastuzumab HCDR3 variant TRYLHDYYYYFDY (Fab, V domains shown)
VH: B13 VH with A97T, R100L, G101H, V102D, W103Y, D106Y, N109Y
VL: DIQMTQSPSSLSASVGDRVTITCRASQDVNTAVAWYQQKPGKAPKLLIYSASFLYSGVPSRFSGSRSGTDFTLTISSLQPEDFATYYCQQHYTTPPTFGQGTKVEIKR
B44: Trastuzumab HCDR3 variant TRYGSFHYYYFDV (Fab, V domains shown)
VH: B13 VH with A97T, R100G, G101S, V102F, W103H, D106Y, N109V
VL: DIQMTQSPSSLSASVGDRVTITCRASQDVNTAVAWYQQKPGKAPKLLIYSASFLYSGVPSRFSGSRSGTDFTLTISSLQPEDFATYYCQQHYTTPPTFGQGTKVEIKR
B45: Trastuzumab HCDR3 variant ARYRGYVLYDFAY (Fab, V domains shown)
VH: B13 VH with V102Y, W103V, Y104L, D108A, N109Y
VL: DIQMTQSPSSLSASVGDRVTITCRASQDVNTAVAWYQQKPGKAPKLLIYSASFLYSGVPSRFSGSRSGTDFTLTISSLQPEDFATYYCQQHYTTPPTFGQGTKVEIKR
B46: Trastuzumab HCDR3 variant ARYYGYGGYYFDY (Fab, V domains shown)
VH: B13 VH with R100Y, V102Y, W103G, Y104G, D106Y, N109Y
VL: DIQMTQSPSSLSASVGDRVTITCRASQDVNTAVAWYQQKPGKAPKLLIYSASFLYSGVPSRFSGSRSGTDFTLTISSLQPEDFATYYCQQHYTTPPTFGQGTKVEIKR
B47: Trastuzumab HCDR3 variant VRYGFDGSYYFDP (Fab, V domains shown)
VH: B13 VH with A97V, R100G, G101F, V102D, W103G, Y104S, D106Y, N109P
VL: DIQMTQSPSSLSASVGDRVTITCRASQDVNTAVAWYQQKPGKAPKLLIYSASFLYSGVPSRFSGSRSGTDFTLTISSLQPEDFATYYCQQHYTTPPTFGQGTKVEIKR
B48: Trastuzumab HCDR3 variant ARYYGYGGYWYDT (Fab, V domains shown)
VH: B13 VH with R100Y, V102Y, W103G, Y104G, D106W, F107Y, N109T
VL: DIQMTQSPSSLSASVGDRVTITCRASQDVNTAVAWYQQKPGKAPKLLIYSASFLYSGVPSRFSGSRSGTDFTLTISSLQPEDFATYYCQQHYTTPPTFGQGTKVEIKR
B49: Trastuzumab HCDR3 variant TRYASGYFYAFDY (Fab, V domains shown)
VH: B13 VH with A97T, R100A, G101S, V102G, W103Y, Y104F, D106A, N109Y
VL: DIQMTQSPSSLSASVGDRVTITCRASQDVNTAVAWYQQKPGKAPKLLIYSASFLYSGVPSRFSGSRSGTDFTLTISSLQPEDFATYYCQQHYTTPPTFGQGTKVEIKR
B50: Trastuzumab HCDR3 variant ATYSTYYNYAFGI (Fab, V domains shown)
VH: B13 VH with R98T, R100S, G101T, V102Y, W103Y, Y104N, D106A, D108G, N109I
VL: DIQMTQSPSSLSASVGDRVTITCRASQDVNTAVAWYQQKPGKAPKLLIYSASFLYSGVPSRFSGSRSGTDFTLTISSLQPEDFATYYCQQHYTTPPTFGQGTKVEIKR

Each binder was assayed against human epidermal growth factor receptor 2 (HER2) extracellular domain (human, UniProt P04626 23-629) (assay: SPR).

Binder | Kd [µM] | log(KD (M))
B1 | 0.0463 | -7.33 log(M)

These binders were tested against T1, HER2 (human epidermal growth factor receptor 2) (human, UniProt P04626 23-629) (assay: SPR).
T1 construct: also called Antigen: HER2

Binder | Kd | log(KD (M))
B2 | 0.015 µM | -7.82
B3 | 0.00972 µM | -8.01
B4 | 0.0237 µM and 0.0236 µM | -7.63
B5 | 0.0143 µM | -7.84
B6 | 0.0218 µM | -7.66
B7 | 0.0139 µM | -7.86
B8 | 0.0176 µM | -7.75
B9 | 0.0269 µM | -7.57
B10 | 0.00979 µM | -8.01
B11 | 0.00915 µM | -8.04
B12 | 0.0269 µM | -7.57
B13 | 0.0145 µM | -7.84
B14 | 0.00535 µM | -8.27
B15 | 0.00094 µM | -9.03
B16 | 0.0118 µM | -7.93
B17 | 0.0255 µM | -7.59
B18 | 0.0024 µM | -8.62
B19 | 0.012 µM | -7.92
B20 | 0.0193 µM | -7.71
B21 | 0.0121 µM | -7.92
B22 | 0.0185 µM | -7.73
B23 | 0.00676 µM | -8.17
B24 | 0.0233 µM | -7.63
B25 | 0.0174 µM | -7.76
B26 | 0.00754 µM | -8.12

Binder | Kd | log(KD (M))
B27 | 0.0197 µM | -7.71
B28 | 0.00991 µM | -8
B29 | 0.00682 µM | -8.17
B30 | 0.0229 µM | -7.64
B31 | 0.00844 µM | -8.07
B32 | 0.0202 µM | -7.7
B33 | 0.0165 µM | -7.78
B34 | 0.0132 µM | -7.88
B35 | 0.0194 µM | -7.71
B36 | 0.0158 µM | -7.8
B37 | 0.0165 µM | -7.78
B38 | 0.0199 µM | -7.7
B39 | 0.0121 µM | -7.92
B40 | 0.0251 µM | -7.6
B41 | 0.00857 µM | -8.07
B42 | 0.0143 µM | -7.84
B43 | 0.0227 µM | -7.64
B44 | 0.00873 µM | -8.06
B45 | 0.0231 µM | -7.64
B46 | 0.00805 µM | -8.09
B47 | 0.0132 µM | -7.88
B48 | 0.00819 µM | -8.09
B49 | 0.00914 µM | -8.04
B50 | 0.0226 µM | -7.65
